Here are results for ten molecules from patent US20040102382A1, “Targeting peptides” (priority 2002, published 2004).

No end group written: not given here.

One assay concerns WiDr cells. The experiment in a line: Phage binding specificity test (output/input ratio). The arrangement: species or system human. Conditions: fifth pool, PhD-C7C library.
In a further assay the test system is P815MUC1 cells. The experiment in a line: Competition of phage binding by synthetic peptides. Also on record: species or system mouse. The note with it: for inhibition of WPY phage binding: increasing amounts of peptide (WPY 0.1, 10 and 500 μM). Here is the method: Synthetic peptides corresponding to the WPY and LPQ sequences of the previously selected phages (second and fourth sequences of Table 3) were synthetized (Neosystem, strasbourg, France). Increasing amounts of WPY peptide (0.1, 10 and 500 μM) and LPQ peptide (0.1, 10 and 1000 μM) or control peptides GHL and SGR (a non-selected phage from the PhD-C7C library) were diluted in a total volume of 1 ml of PBS-BSA1 % with 5.10^6 P815MUC1 cells and incubated for 1 hour at 4° C. under slight agitation. 1.10^10 WPY or LPQ phages in 200 μl of PBS-1% BSA were added and incubated with the cells and the peptide for two hours at 4° C. under slight agitation. Cells were then washed and bound phages eluted and titered following the same protocol as for the selections.

For assay [1], the target named is coxsackievirus-adenovirus receptor (CAR) on cells (UniProt P78310). As to the kind of experiment: cell-based or functional assay.
UniProt P78310, sequence (P78310 20-365 limits assumed): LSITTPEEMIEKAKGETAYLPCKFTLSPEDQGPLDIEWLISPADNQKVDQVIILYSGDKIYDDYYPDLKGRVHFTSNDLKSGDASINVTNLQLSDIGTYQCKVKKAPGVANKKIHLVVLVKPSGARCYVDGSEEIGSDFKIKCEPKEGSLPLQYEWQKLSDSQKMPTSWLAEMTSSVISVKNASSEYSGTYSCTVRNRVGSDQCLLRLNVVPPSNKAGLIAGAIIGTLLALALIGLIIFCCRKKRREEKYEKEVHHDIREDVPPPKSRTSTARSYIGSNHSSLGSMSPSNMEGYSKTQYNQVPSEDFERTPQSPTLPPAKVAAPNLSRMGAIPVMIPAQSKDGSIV
The target in assay [2] is MUC1 as expressed on P815MUC1 cells (P815 mouse mastocytoma cells transfected with MUC1 and Neomycin expression cassettes) (UniProt P15941). As to the kind of experiment: phage titration on MUC1-transfected against control-transfected P815 cells (FIG. 4).
For assay [3] the target is unchanged. As to the kind of experiment: phage titration on P815MUC1 cells (1.5e11 phages, 1e7 cells; FIG. 4); the same is said of MUC1-negative P815pAG60 cells.
The mark [4] stands for this setting: increasing amounts of peptide (LPQ 0.1, 10 and 1000 μM), 1.10^10 phages, 4° C.

As to CLPSTRQTC [CLPSTRWTC], in the assay with WiDr cells, the “binding to WiDr cells compared to the subtractor 293 cells” value was “specific binding”.

Consider LPQRAFWVPPIV, for which, in the assay with P815MUC1 cells (setting [4]), the “inhibition of LPQ phage binding” value is reported as “inhibit in a dose-dependant manner”.

CWPYPSHFC: the “inhibition of LPQ phage binding” value with P815MUC1 cells (500 μM concentration of non-corresponding peptide) was “did not significatively inhibit”. The “inhibition of WPY phage binding” value with P815MUC1 cells (1.10^10 phages, 4° C.) is “inhibit in a dose-dependant manner”.

Turning to “GHLIPLRQPSHQ [GHL used as control peptide and non-selected PhD12 control phage, reference compound]”, the “inhibition of LPQ phage binding” value in the assay on P815MUC1 cells (setting [4]) is on record as “did not significatively inhibit”. The “inhibition of WPY phage binding” value in the assay with P815MUC1 cells (1.10^10 phages, 4° C.) was “did not significatively inhibit”.

“Adenovirus type 5 wild-type fiber protein, as carried by the Ad-fbwt virus (from UniProt P11818 1-581)” displayed an inhibition of infection of 293 and HeLa cells (β-galactosidase activity, % of control) by soluble knob at 10 µg/ml in assay [1] of more than 90%.

Molecule MPLPQPSHLPLL (not fully specified (C-terminus)) [MPL phage (M13 phage of the PhD-12 library displaying …)] returned a fold binding to P815MUC1 cells over P815pAG60 cells in assay [2] of more than 3 times. For the same molecule, in assay [3], the fold higher affinity than the control phages (M13, GHL) is more than 100 fold.

Molecule WPTSPWSSRDWS (not fully specified (C-terminus)) showed a fold binding to P815MUC1 cells over P815pAG60 cells in assay [2] of more than 3 times. Besides, the fold higher affinity than the control phages (M13, GHL) in assay [3] was more than 100 fold.

For the molecule LPQRAFWVPPIV (not fully specified (C-terminus)) [LPQ phage (M13 phage of the PhD-12 library displaying …)], in assay [2], the fold binding to P815MUC1 cells over P815pAG60 cells was more than 3 times. The fold higher affinity than the control phages (M13, GHL) in assay [3] was more than 100 fold.

For WPVRPWMPGPVV (not fully specified (C-terminus)) [WPV phage (M13 phage of the PhD-12 library displaying …)], the fold binding to P815MUC1 cells over P815pAG60 cells in assay [2] was more than 3 times. This molecule yielded a fold higher affinity than the control phages (M13, GHL) in assay [3] of more than 100 fold.

Turning to WPTSPWLEREPA (not fully specified (C-terminus)), the fold binding to P815MUC1 cells over P815pAG60 cells in assay [2] is more than 3 times. Besides, in assay [3], the fold higher affinity than the control phages (M13, GHL) was more than 100 fold.
